Results from patent US20170335004A1 (LA TROBE UNIVERSITY, published 2017).

Key:
[1] = molecular target: T1, hFn14-Fc (Fc-tagged ectodomain of human Fn14) (human, UniProt Q9NP84 29-78); assay: SPR (ProteOn XPR36), hFab amine-coupled, hFn14-Fc as analyte, Langmuir fit, average of 5 measurements
T1 construct: also called Fc-tagged hFn14; not shown: Fc tag
Protocol: The affinity of wildtype Fab clone 6.5 and the light chain shuffled mutants was measured by surface Plasmon resonance (SPR) using the ProteOn XPR36TM instrument (BioRad). Individual channels of a six channel GLC chip were coupled with the relevant hFab ligand at 5 μg/ml in 0.1M sodium acetate buffer pH 4.5 using amine coupling according to the manufacturer's instructions. Five dilutions of analyte hFn14-Fc were prepared in PBS containing 0.005% Tween20 (running buffer) and allowed to flow over the coupled hFab at […] flow rate for 500 seconds to evaluate the “on rate” (ka). This was followed by flow with the running buffer for 1200 seconds to evaluate the “off rate” (kd). This process was repeated until the analyte dilution series allowed a good kinetic fit using the Langmuir statistical model for analysing the ka and kd, where the affinity constant (KD) is the kd/ka. The best fit data was analysed using the ProteOn software measured by Chi2, where the lowest value is the best fit of the model to the SPR binding curves.

[2] = molecular target: T2, BSA (bovine, UniProt P02769); assay: ELISA of purified hFab 6.5 on a panel of coated antigens, absorbance 450 nm
T2 construct: also called bovine serum albumin
T2 sequence (P02769 25-607 limits assumed): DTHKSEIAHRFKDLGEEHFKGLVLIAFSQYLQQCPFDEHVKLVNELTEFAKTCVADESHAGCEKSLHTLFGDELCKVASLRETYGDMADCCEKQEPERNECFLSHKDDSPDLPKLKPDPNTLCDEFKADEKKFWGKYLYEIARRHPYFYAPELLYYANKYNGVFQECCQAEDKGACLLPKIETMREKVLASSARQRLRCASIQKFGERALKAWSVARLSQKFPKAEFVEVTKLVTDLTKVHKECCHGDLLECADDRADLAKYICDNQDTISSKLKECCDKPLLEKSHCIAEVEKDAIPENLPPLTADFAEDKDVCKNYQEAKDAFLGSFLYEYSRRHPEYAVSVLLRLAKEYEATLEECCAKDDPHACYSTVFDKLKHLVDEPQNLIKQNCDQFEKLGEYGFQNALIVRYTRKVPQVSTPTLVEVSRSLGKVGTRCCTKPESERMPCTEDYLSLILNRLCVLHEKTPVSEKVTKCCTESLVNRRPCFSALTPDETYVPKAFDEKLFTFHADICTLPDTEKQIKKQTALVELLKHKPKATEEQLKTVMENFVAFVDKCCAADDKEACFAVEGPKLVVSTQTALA

T1 sequence (Q9NP84 29-78): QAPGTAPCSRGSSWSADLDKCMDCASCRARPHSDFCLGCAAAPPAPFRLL

B1: hFab 6.5 (Fab, V domains shown)
VH: QVQLVQSGGGLVKPGGSLRLSCAASGFTFTSYAMSWVRQAPGKGLEWVSAISGSGGSTYYADSVKGRFTISRDNPKNTLYLQMNSLRAEDTAVYYCARVRANYYYGMDVWGQGTLVTVSS
VL: LTQSPGTLSLSPGERATLSCRASQSVSSSTLAWYQQKPGQTPRLLIYGASTRATGIPARFSGSGSGTDFTLTISRLEPEDFAVYYCQQYGSSRLTFGGGTKVEIKR
notes: Human Fab from a phage display library, kappa light chain, expressed in the E. coli periplasm; also called clone 6.5; wildtype Fab 6.5
What does the source list for B1?
Kd [1]: 22.1 nM; koff [1]: 0.00207 s⁻¹; kon [1]: 94000 M⁻¹ s⁻¹; binding result [2]: no binding (tested: 10 ug/ml)
